Test results as given in paper PMC2655680 (Nucleic Acids Research, 2009).
Non-standard residues stand in square brackets, D forms with d. No end group written: not given here. pT = C[C@@H](OP(=O)(O)O)[C@H](N)C(=O)O; pS = N[C@@H](COP(=O)(O)O)C(=O)O

Target: full-length human PNK (human, UniProt Q96T60 1-521)
Assay: ITC

stoichiometry N	Binder
0.61	YAG[pS][pT]DENTDSE [XRCC1 peptide YAGpSpTDENTDSE, phosphorylated on Ser518 and Thr519]
0.49	YAG[pS][pT]DEN[pT]D[pS]E [XRCC1 peptide YAGpSpTDENpTDpSE, phosphorylated on Ser518, Thr519, Thr523 and Ser525]
